Measurements taken from the supplement of paper PMC9233669.
This sample holds only a part of the variants without activity.

Assays:
[1] = tested on: biotinyl-Phe-oxazolone; assay: self-aminoacylation, catalytic enhancement (BFO) (fold over background); higher = more active; k-Seq, kA / k0A0; sequences stand for … in GGGAAUGGAUCCACAUCUACGAAUUC…UUCACUGCAGACUUGACGAAGCUG
Method in brief: (§1)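 Mutagenized RNA pools (0.43 μM; 21-nt variable region) were treated with 2–1250 μM of each biotinyl-aminoacyl-oxazolone. Conditions were 50 μL HEPES/NaCl/KCl/MgCl2/CaCl2 buffer, 5% acetonitrile, pH 6.9–7.0, room temperature, 90 minutes. Catalytic enhancement, the median kA relative to the uncatalyzed rate, was derived from streptavidin capture, qPCR and Illumina sequencing.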

[2] = tested on: biotinyl-Val-oxazolone; assay: self-aminoacylation, catalytic enhancement (BVO) (fold over background); higher = more active; k-Seq, kA / k0A0; sequences stand for … in GGGAAUGGAUCCACAUCUACGAAUUC…UUCACUGCAGACUUGACGAAGCUG
Method in brief: as §1

[3] = tested on: biotinyl-Leu-oxazolone; assay: self-aminoacylation, catalytic enhancement (BLO) (fold over background); higher = more active; k-Seq, kA / k0A0; sequences stand for … in GGGAAUGGAUCCACAUCUACGAAUUC…UUCACUGCAGACUUGACGAAGCUG
Method in brief: as §1

[4] = tested on: biotinyl-Ile-oxazolone; assay: self-aminoacylation, catalytic enhancement (BIO) (fold over background); higher = more active; k-Seq, kA / k0A0; sequences stand for … in GGGAAUGGAUCCACAUCUACGAAUUC…UUCACUGCAGACUUGACGAAGCUG
Method in brief: as §1

[5] = tested on: biotinyl-Met-oxazolone; assay: self-aminoacylation, catalytic enhancement (BMO) (fold over background); higher = more active; k-Seq, kA / k0A0; sequences stand for … in GGGAAUGGAUCCACAUCUACGAAUUC…UUCACUGCAGACUUGACGAAGCUG
Method in brief: as §1

[6] = tested on: biotinyl-Trp-oxazolone; assay: self-aminoacylation, catalytic enhancement (BWO) (fold over background); higher = more active; k-Seq, kA / k0A0; sequences stand for … in GGGAAUGGAUCCACAUCUACGAAUUC…UUCACUGCAGACUUGACGAAGCUG
Method in brief: as §1

## AUUACCCUGGACAGCGAGUGA [Fam2.1 aminoacylation ribozyme variant]
[1]
  self-aminoacylation: 10.9
[2]
  self-aminoacylation: 2.12
[3]
  self-aminoacylation: 4.19
[4]
  self-aminoacylation: 2.24
[5]
  self-aminoacylation: 3.3
[6]
  self-aminoacylation: 2.52

## AAGUGUGGUAAUAGUCGCAAG [Fam3.1 aminoacylation ribozyme variant]
[1]
  self-aminoacylation: 1.5
[2]
  self-aminoacylation: 1.16
[3]
  self-aminoacylation: 1.48
[4]
  self-aminoacylation: 1.43
[5]
  self-aminoacylation: 1.15
[6]
  self-aminoacylation: 1.15

## ACUCCCCUGGUCAUCGAGUGA [Fam2.1 aminoacylation ribozyme variant]
[1]
  self-aminoacylation: 42.7
[2]
  self-aminoacylation: 3.69
[3]
  self-aminoacylation: 6.71
[4]
  self-aminoacylation: 3.18
[5]
  self-aminoacylation: 6.39
[6]
  self-aminoacylation: 6.48

## CCACACUCCAAGCAACCGGUC [Fam1B.1 aminoacylation ribozyme variant]
[1]
  self-aminoacylation: 0.853
[2]
  self-aminoacylation: 1.44
[3]
  self-aminoacylation: 1.19
[4]
  self-aminoacylation: 1.24
[5]
  self-aminoacylation: 0.814
[6]
  self-aminoacylation: 0.654

## CCACACUUCCAGCGAUCGGUC [Fam1B.1 aminoacylation ribozyme variant]
[1]
  self-aminoacylation: 1.52
[2]
  self-aminoacylation: 1.97
[3]
  self-aminoacylation: 1.51
[4]
  self-aminoacylation: 1.78
[5]
  self-aminoacylation: 1.68
[6]
  self-aminoacylation: 1.46

## AUUCACCUAGGUCCUCGGGUA [Fam2.2 aminoacylation ribozyme variant]
[1]
  self-aminoacylation: 1.16
[2]
  self-aminoacylation: 2.39
[3]
  self-aminoacylation: 1.71
[4]
  self-aminoacylation: 2.44
[5]
  self-aminoacylation: 2.26
[6]
  self-aminoacylation: 3

## AAGUUUGCUAAUAGUCACCAG [Fam3.1 aminoacylation ribozyme variant]
[1]
  self-aminoacylation: 2.77
[2]
  self-aminoacylation: 0.997
[3]
  self-aminoacylation: 0.762
[4]
  self-aminoacylation: 0.949
[5]
  self-aminoacylation: 0.962
[6]
  self-aminoacylation: 1.21

## CUACUUAAAUCAAUCGGUCUG [Fam1A.1 aminoacylation ribozyme variant]
[1]
  self-aminoacylation: 0.911
[2]
  self-aminoacylation: 0.91
[3]
  self-aminoacylation: 0.793
[4]
  self-aminoacylation: 0.887
[5]
  self-aminoacylation: 0.702
[6]
  self-aminoacylation: 0.691

## AUUCUCCUAGGACAUCGGGUG [Fam2.2 aminoacylation ribozyme variant]
[1]
  self-aminoacylation: 27.8
[2]
  self-aminoacylation: 3.62
[3]
  self-aminoacylation: 5.06
[4]
  self-aminoacylation: 2.81
[5]
  self-aminoacylation: 4.55
[6]
  self-aminoacylation: 3.73

## AUUCACCUGGGUCAUCGAGUG [Fam2.2 aminoacylation ribozyme variant]
[1]
  self-aminoacylation: 3.55
[2]
  self-aminoacylation: 2.59
[3]
  self-aminoacylation: 4.18
[4]
  self-aminoacylation: 2.4
[5]
  self-aminoacylation: 3.54
[6]
  self-aminoacylation: 3.74

## CUACUUUAAACAAUCGGUCAG [Fam1A.1 aminoacylation ribozyme variant]
[1]
  self-aminoacylation: 0.862
[2]
  self-aminoacylation: 0.655
[3]
  self-aminoacylation: 0.588
[4]
  self-aminoacylation: 0.617
[5]
  self-aminoacylation: 0.716
[6]
  self-aminoacylation: 0.417

## CUACUUCCAACAAUCUGUCUG [Fam1A.1 aminoacylation ribozyme variant]
[1]
  self-aminoacylation: 0.746
[2]
  self-aminoacylation: 0.757
[3]
  self-aminoacylation: 0.59
[4]
  self-aminoacylation: 0.776
[5]
  self-aminoacylation: 0.488
[6]
  self-aminoacylation: 0.438

## AAUACCCUGGUCAUCGAGUGA [Fam2.1 aminoacylation ribozyme variant]
[1]
  self-aminoacylation: 20.8
[2]
  self-aminoacylation: 5.52
[3]
  self-aminoacylation: 8.74
[4]
  self-aminoacylation: 5.01
[5]
  self-aminoacylation: 9.27
[6]
  self-aminoacylation: 11.2

## AUUACCCUGGUCAGCGAGGGA [Fam2.1 aminoacylation ribozyme variant]
[1]
  self-aminoacylation: 0.743
[2]
  self-aminoacylation: 1.19
[3]
  self-aminoacylation: 0.891
[4]
  self-aminoacylation: 1.54
[5]
  self-aminoacylation: 1.34
[6]
  self-aminoacylation: 2.06

## CUACUUCAAGCAAUCGGCCUG [Fam1A.1 aminoacylation ribozyme variant]
[1]
  self-aminoacylation: 18.9
[2]
  self-aminoacylation: 1.6
[3]
  self-aminoacylation: 2.44
[4]
  self-aminoacylation: 1.85
[5]
  self-aminoacylation: 1.74
[6]
  self-aminoacylation: 16.4

## ACGUUUGCUGAUAGUCGCAAG [Fam3.1 aminoacylation ribozyme variant]
[1]
  self-aminoacylation: 4.7
[2]
  self-aminoacylation: 1.35
[3]
  self-aminoacylation: 1.57
[4]
  self-aminoacylation: 1.52
[5]
  self-aminoacylation: 1.12
[6]
  self-aminoacylation: 1.69

## AAGUUUUCUAAUAGUCGCACG [Fam3.1 aminoacylation ribozyme variant]
[1]
  self-aminoacylation: 1.8
[2]
  self-aminoacylation: 1.25
[3]
  self-aminoacylation: 1.24
[4]
  self-aminoacylation: 1.3
[5]
  self-aminoacylation: 1.38
[6]
  self-aminoacylation: 1.34

## CCACAAUUCAAGCGAUCGGUC [Fam1B.1 aminoacylation ribozyme variant]
[1]
  self-aminoacylation: 1.53
[2]
  self-aminoacylation: 1.47
[3]
  self-aminoacylation: 1.56
[4]
  self-aminoacylation: 1.37
[5]
  self-aminoacylation: 1.28
[6]
  self-aminoacylation: 1.12

## AAGUUUGCUAAUAGUCGCCAU [Fam3.1 aminoacylation ribozyme variant]
[1]
  self-aminoacylation: 0.768
[2]
  self-aminoacylation: 1.2
[3]
  self-aminoacylation: 1.24
[4]
  self-aminoacylation: 1.27
[5]
  self-aminoacylation: 1.44
[6]
  self-aminoacylation: 1.08

## AAGUUAGCUAAUAGUGGCAAG [Fam3.1 aminoacylation ribozyme variant]
[1]
  self-aminoacylation: 0.615
[2]
  self-aminoacylation: 0.648
[3]
  self-aminoacylation: 0.554
[4]
  self-aminoacylation: 0.718
[5]
  self-aminoacylation: 0.809
[6]
  self-aminoacylation: 0.543

## AUUCUCCUAAGUCAUCGGGUG [Fam2.2 aminoacylation ribozyme variant]
[1]
  self-aminoacylation: 154
[2]
  self-aminoacylation: 9.67
[3]
  self-aminoacylation: 21.3
[4]
  self-aminoacylation: 10.3
[5]
  self-aminoacylation: 16
[6]
  self-aminoacylation: 16

## AUUACCCUGUUCCUCGAGUGA [Fam2.1 aminoacylation ribozyme variant]
[1]
  self-aminoacylation: 11.2
[2]
  self-aminoacylation: 2.68
[3]
  self-aminoacylation: 3.54
[4]
  self-aminoacylation: 2.27
[5]
  self-aminoacylation: 3.86
[6]
  self-aminoacylation: 4.81

## AUUCACCUAAGUCAUCGGGUC [Fam2.2 aminoacylation ribozyme variant]
[1]
  self-aminoacylation: 1.31
[2]
  self-aminoacylation: 1.53
[3]
  self-aminoacylation: 1.13
[4]
  self-aminoacylation: 1.01
[5]
  self-aminoacylation: 1.42
[6]
  self-aminoacylation: 1.78

## AAUACCCUGGUCAGCGAGUGA [Fam2.1 aminoacylation ribozyme variant]
[1]
  self-aminoacylation: 3.78
[2]
  self-aminoacylation: 2.61
[3]
  self-aminoacylation: 4.46
[4]
  self-aminoacylation: 2.36
[5]
  self-aminoacylation: 4.02
[6]
  self-aminoacylation: 5.5

## AAGUUUACUAAUAGUAGCAAG [Fam3.1 aminoacylation ribozyme variant]
[1]
  self-aminoacylation: 1.97
[2]
  self-aminoacylation: 1.22
[3]
  self-aminoacylation: 1.17
[4]
  self-aminoacylation: 1.54
[5]
  self-aminoacylation: 1.28
[6]
  self-aminoacylation: 0.98

## AUUCACCUAGGUUAUGGGGUG [Fam2.2 aminoacylation ribozyme variant]
[1]
  self-aminoacylation: 78.4
[2]
  self-aminoacylation: 4.76
[3]
  self-aminoacylation: 11.2
[4]
  self-aminoacylation: 5.44
[5]
  self-aminoacylation: 8.25
[6]
  self-aminoacylation: 8.28
